Assay results: PMC6882888, “Two-tiered enforcement of high-fidelity DNA ligation”

Experiments:
LIG1 E346A/E592A (EE/AA) [1] = biological target: T1, LIG1 E346A/E592A (EE/AA) (Homo sapiens, UniProt P18858 262-904, E346A;E592A); assay: X-ray crystallography (2.20 A); 200 mM Mg2+ in cryoprotectant, 1 mM ATP; Crystals: complex in 150 mM NaCl, 20 mM Tris-Cl pH 7.5, 1 mM TCEP, 1 mM ATP mixed 1:1 with 100 mM MES pH 6, 100 mM lithium acetate, 15% PEG3350; ligation/trapping: 50 mM NaMOPS pH 7.5, 1 mM DTT, 0.05 mg/mL BSA, ionic strength 150 mM (NaCl), 37 C; settings: protein: recombinant; tags: His-tag removed by TEV; nicked duplex, 11mer + 7mer on 18mer template, blunt ends
T1 sequence (P18858 262-904 E346A/E592A): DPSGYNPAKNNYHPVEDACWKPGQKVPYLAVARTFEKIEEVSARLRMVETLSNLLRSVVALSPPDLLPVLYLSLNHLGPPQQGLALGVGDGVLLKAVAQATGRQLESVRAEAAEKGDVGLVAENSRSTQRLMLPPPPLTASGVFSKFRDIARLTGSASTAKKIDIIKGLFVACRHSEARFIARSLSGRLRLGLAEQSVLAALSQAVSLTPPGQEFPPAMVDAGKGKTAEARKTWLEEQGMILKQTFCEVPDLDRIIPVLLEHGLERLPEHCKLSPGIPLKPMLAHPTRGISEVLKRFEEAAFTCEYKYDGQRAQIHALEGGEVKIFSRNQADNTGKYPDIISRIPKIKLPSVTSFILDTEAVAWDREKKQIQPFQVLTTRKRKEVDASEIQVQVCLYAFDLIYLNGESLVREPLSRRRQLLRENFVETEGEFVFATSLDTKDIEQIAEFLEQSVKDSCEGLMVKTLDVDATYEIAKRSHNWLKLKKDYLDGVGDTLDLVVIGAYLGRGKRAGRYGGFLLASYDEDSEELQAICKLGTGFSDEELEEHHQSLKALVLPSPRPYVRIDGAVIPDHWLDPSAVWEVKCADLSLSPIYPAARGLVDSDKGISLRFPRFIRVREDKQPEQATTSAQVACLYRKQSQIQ

LIG1 WT [2] = biological target: T2, LIG1 WT (Homo sapiens, UniProt P18858 262-904); assay: X-ray crystallography (2.05 A); 200 mM Mg2+ in cryoprotectant, 1 mM ATP; AMP-DNA intermediate; 4 Mg2+ sites; Crystals: complex in 150 mM NaCl, 20 mM Tris-Cl pH 7.5, 1 mM TCEP, 1 mM ATP mixed 1:1 with 100 mM MES pH 6, 100 mM lithium acetate, 15% PEG3350; ligation/trapping: 50 mM NaMOPS pH 7.5, 1 mM DTT, 0.05 mg/mL BSA, ionic strength 150 mM (NaCl), 37 C; settings: protein: recombinant; tags: His-tag removed by TEV; nicked duplex, 11mer + 7mer on 18mer template, blunt ends
T2 sequence (P18858 262-904): as the sequence (P18858 262-904 E346A/E592A) above, with A85E, A331E counted along it

LIG1 E346A/E592A (EE/AA) [3] = biological target: T1, LIG1 E346A/E592A (EE/AA); assay: X-ray crystallography (1.85 A); 2 mM EDTA in cryoprotectant, 1 mM ATP; 5'-adenylylated; Crystals: complex in 150 mM NaCl, 20 mM Tris-Cl pH 7.5, 1 mM TCEP, 1 mM ATP mixed 1:1 with 100 mM MES pH 6, 100 mM lithium acetate, 15% PEG3350; ligation/trapping: 50 mM NaMOPS pH 7.5, 1 mM DTT, 0.05 mg/mL BSA, ionic strength 150 mM (NaCl), 37 C; settings: protein: recombinant; tags: His-tag removed by TEV; nicked duplex, 11mer + 7mer on 18mer template, blunt ends, 8oxoG:A Hoogsteen pair at nick
LIG1 E592R = LIG1 E592R (Homo sapiens, UniProt P18858 262-904, E592R); assay: X-ray crystallography (1.85 A); 2 mM EDTA in cryoprotectant, 1 mM ATP; Crystals: complex in 150 mM NaCl, 20 mM Tris-Cl pH 7.5, 1 mM TCEP, 1 mM ATP mixed 1:1 with 100 mM MES pH 6, 100 mM lithium acetate, 15% PEG3350; ligation/trapping: 50 mM NaMOPS pH 7.5, 1 mM DTT, 0.05 mg/mL BSA, ionic strength 150 mM (NaCl), 37 C; settings: protein: recombinant; tags: His-tag removed by TEV; nicked duplex, 11mer + 7mer on 18mer template, blunt ends
Chain of LIG1 E592R (P18858 262-904 E592R): as the sequence (P18858 262-904 E346A/E592A) above, with A85E, A331R counted along it

LIG1 E346A/E592A (EE/AA) [4] = biological target: T1, LIG1 E346A/E592A (EE/AA); assay: X-ray crystallography (1.75 A); 2 mM EDTA in cryoprotectant, 1 mM ATP; 5'-adenylylated; Crystals: complex in 150 mM NaCl, 20 mM Tris-Cl pH 7.5, 1 mM TCEP, 1 mM ATP mixed 1:1 with 100 mM MES pH 6, 100 mM lithium acetate, 15% PEG3350; ligation/trapping: 50 mM NaMOPS pH 7.5, 1 mM DTT, 0.05 mg/mL BSA, ionic strength 150 mM (NaCl), 37 C; settings: protein: recombinant; tags: His-tag removed by TEV; nicked duplex, 11mer + 7mer on 18mer template, blunt ends
LIG1 WT [5] = biological target: T2, LIG1 WT; assay: X-ray crystallography (1.55 A); 2 mM EDTA in cryoprotectant, 1 mM ATP; Crystals: complex in 150 mM NaCl, 20 mM Tris-Cl pH 7.5, 1 mM TCEP, 1 mM ATP mixed 1:1 with 100 mM MES pH 6, 100 mM lithium acetate, 15% PEG3350; ligation/trapping: 50 mM NaMOPS pH 7.5, 1 mM DTT, 0.05 mg/mL BSA, ionic strength 150 mM (NaCl), 37 C; settings: protein: recombinant; tags: His-tag removed by TEV; nicked duplex, 11mer + 7mer on 18mer template, blunt ends

B1: nicked 18mer 3'ddC (oligos 1,2,3) (dsDNA)
DNA 1: GTCCGACGACGCATCAGC
DNA 2: GCTGATGCGTC
DNA 3: GTCGGAC
modifications: 3'-terminal C of 11mer is ddC; 5' phosphate on 7mer, 5'-adenylylated in the complex
B1: binds (LIG1 E346A/E592A (EE/AA) [1]); binds (LIG1 WT [2]).

B2: nicked 18mer 3'-8oxoG:A (oligos 3,5,6) (dsDNA)
DNA 1: GTCCGACAACGCATCAGC
DNA 2: GCTGATGCGTG
DNA 3: GTCGGAC
modifications: 3'-terminal G of 11mer is 8oxoG (opposite A); 5' phosphate on 7mer, 5'-adenylylated in the crystal
B2: binds (LIG1 E346A/E592A (EE/AA) [3]).

B3: nicked 18mer 3'OH (oligos 1,3,4) (dsDNA)
DNA 1: GTCCGACGACGCATCAGC
DNA 2: GCTGATGCGTC
DNA 3: GTCGGAC
modifications: 5' phosphate on 7mer, 5'-adenylylated in the crystal
B3: binds (LIG1 E592R); binds (LIG1 E346A/E592A (EE/AA) [4]); binds (LIG1 WT [5]).
